Measured values from patent US20240002544A1 (NOVIMMUNE, published 2024).
Changes are numbered by the printed parent chain.

B1: 1a28/AC84/N (bispecific antibody, human IgG1, kappa, L234A L235A)
heavy 1: QSVLTQPPSVSAAPGQKVTISCSGSSSNIGIGLVSWYQQLPGTAPKLLIYNVNTRPSGIPDRFSGSKSGTSATLGITGLQTGDEADYYCGTWDFSYRVDFGGGTKLTVLSSASTKGPSVFPLAPSSKSTSGGTAALGCLVKDYFPEPVTVSWNSGALTSGVHTFPAVLQSSGLYSLSSVVTVPSSSLGTQTYICNVNHKPSNTKVDKKVEPKSCDKTHTCPPCPAPEAAGGPSVFLFPPKPKDTLMISRTPEVTCVVVDVSHEDPEVKFNWYVDGVEVHNAKTKPREEQYNSTYRVVSVLTVLHQDWLNGKEYKCKVSNKALAAPIEKTISKAKGQPREPQVYTLPPCRDELTKNQVSLWCLVKGFYPSDIAVEWQSNGQTENNYKTTPPVLDSDGSFFLYSKLTVDKSRWQQGNVFSCSVMHEALHNHYTQKSLSLSPG
heavy 2: QVQLQESGPGLVKPSETLSLTCTVSGGSISSYYWSWIRQPPGKGLEWIGYIYYSGITHYNPSLKSRVTISVDTSKIQFSLKLSSVTAADTAVYYCARWGVRRDYYYYGMDVWGQGTTVTVSSASTKGPSVFPLAPSSKSTSGGTAALGCLVEDYFPEPVTVTWNSGALSSGVHTFPAVLQSSGLYSLSSVVTVPSSSLGTQTYICNVNHKPSNTKVDEKVEPKSCDKTHTCPPCPAPEAAGGPSVFLFPPKPKDTLMISRTPEVTCVVVDVSHEDPEVKFNWYVDGVEVHNAKTKPREEQYNSTYRVVSVLTVLHQDWLNGKEYKCKVSNKALAAPIEKTISKAKGQPREPQVCTLPPSRDELTKNQVSLSCAVKGFYPSDIAVEWESNGQPENNYKTTPPVLDSDGSFFLVSKLTVDKSRWQQGNVFSCSVMHEALHNHYTQKSLSLSPG
light 1: not shown
light 2: not shown
notes: LALAPA-mutated huIgG1, 1+1 crossMAb/knobs-into-hole; also called benchmark CEA×CD28 bsAb
B2: AI3O41/N (bispecific antibody, human IgG1, kappa, lambda, L234A L235A)
heavy: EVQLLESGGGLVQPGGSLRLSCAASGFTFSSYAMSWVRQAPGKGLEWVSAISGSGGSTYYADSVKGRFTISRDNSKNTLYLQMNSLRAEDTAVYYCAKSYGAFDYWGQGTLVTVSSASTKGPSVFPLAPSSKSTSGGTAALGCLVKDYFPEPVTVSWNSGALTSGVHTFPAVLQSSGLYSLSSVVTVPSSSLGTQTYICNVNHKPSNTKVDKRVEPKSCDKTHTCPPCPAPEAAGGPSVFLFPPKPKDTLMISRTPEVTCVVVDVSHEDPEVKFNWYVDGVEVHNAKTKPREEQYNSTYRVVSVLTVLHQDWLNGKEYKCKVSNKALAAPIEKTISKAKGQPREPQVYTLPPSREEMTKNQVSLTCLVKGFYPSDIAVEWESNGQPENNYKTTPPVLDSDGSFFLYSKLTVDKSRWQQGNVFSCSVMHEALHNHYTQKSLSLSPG
light 1: not shown
light 2: SYVLTQPPSVSVAPGKTARITCGGNKIGHRAVHWYQQKPGQAPVLVIYYTYERPSGIPERFSGSNSGNTATLTISRVEAGDEADYYCQVWDWYSEGGVVFGGGTKLTVLGQPKAAPSVTLFPPSSEELQANKATLVCLISDFYPGAVTVAWKADSSPVKAGVETTTPSKQSNNKYAASSYLSLTPEQWKSHRSYSCQVTHEGSTVEKTVAPTECS
notes: κλ-body, IgG1 LALAPA; also called AI3 (AI_1H5) kappa / O41 (Ob9_1A11) lambda
B3: AI3O35/N (bispecific antibody, human IgG1, kappa, lambda, L234A L235A)
heavy: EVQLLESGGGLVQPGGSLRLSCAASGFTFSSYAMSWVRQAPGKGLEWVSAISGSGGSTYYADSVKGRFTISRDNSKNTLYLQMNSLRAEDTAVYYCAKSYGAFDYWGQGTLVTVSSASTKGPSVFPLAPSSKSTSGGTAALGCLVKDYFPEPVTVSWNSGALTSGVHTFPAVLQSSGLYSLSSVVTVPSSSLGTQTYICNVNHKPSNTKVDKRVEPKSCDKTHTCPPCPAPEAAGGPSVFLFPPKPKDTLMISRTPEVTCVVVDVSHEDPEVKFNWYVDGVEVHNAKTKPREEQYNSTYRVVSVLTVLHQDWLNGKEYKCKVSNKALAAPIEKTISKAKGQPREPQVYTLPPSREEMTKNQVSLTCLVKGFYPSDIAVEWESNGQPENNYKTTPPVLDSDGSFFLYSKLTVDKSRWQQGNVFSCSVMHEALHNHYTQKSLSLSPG
light 1: not shown
light 2: QPVLTQPVSLSASPGASVSLTCTLRSDIRVRDYRIFWYQQKPGSPPQYLLRYKTDSDKQQGSGVPSRFSGSKDASANAGILLISGLQSEDEADYYCMIWHRTTGTSLVFGGGTKLTVLGQPKAAPSVTLFPPSSEELQANKATLVCLISDFYPGAVTVAWKADSSPVKAGVETTTPSKQSNNKYAASSYLSLTPEQWKSHRSYSCQVTHEGSTVEKTVAPTECS
notes: κλ-body, IgG1 LALAPA; also called AI3 (AI_1H5) kappa / O35 (Ob8_A10) lambda
B4: AI5O30/N (bispecific antibody, human IgG1, kappa, lambda, L234A L235A)
heavy: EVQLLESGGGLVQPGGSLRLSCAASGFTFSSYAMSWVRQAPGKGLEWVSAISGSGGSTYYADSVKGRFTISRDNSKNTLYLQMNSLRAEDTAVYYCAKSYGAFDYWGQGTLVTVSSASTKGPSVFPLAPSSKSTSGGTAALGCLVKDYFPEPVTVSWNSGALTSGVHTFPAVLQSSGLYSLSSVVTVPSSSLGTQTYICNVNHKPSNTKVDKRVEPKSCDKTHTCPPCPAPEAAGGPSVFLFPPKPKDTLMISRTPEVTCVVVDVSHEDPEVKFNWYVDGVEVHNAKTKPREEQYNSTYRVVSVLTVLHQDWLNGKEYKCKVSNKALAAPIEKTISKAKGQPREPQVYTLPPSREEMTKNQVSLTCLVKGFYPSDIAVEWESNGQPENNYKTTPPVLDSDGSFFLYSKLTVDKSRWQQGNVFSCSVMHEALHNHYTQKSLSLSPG
light 1: DIVMTQTPLSLSVTPGQPASISCKSSGDLLTFEGKTYLYWYLQKPGQPPQLLIYEVSNRFSGVPDRFSGSGSGTDFTLKISRVEAEDVGVYYCMQAHSTRFAFTFGQGTKVEIKRTVAAPSVFIFPPSDEQLKSGTASVVCLLNNFYPREAKVQWKVDNALQSGNSQESVTEQDSKDSTYSLSSTLTLSKADYEKHKVYACEVTHQGLSSPVTKSFNRGEC
light 2: not shown
notes: κλ-body, huIgG1-LALAPA; also called AI5 (AI_1A9) kappa / O30 (O1b6_1D1) lambda
B5: AI5O41/N (bispecific antibody, human IgG1, kappa, lambda, L234A L235A)
heavy: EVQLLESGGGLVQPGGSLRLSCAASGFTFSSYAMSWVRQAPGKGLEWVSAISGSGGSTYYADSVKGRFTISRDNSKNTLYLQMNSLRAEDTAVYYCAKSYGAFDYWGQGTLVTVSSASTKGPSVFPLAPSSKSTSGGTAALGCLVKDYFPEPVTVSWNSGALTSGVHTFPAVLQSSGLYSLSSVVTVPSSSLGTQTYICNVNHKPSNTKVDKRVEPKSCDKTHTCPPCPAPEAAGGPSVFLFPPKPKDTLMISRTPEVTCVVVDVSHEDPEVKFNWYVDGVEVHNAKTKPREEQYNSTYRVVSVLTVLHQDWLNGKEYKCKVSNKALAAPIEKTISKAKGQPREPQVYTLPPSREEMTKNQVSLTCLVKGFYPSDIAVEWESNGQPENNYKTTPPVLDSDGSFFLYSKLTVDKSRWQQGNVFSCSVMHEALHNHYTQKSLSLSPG
light 1: B4 light 1
light 2: B2 light 2
notes: κλ-body, huIgG1-LALAPA; also called AI5 (AI_1A9) kappa / O41 (Ob9_1A11) lambda
B6: AI5O35/N (bispecific antibody, human IgG1, kappa, lambda, L234A L235A)
heavy: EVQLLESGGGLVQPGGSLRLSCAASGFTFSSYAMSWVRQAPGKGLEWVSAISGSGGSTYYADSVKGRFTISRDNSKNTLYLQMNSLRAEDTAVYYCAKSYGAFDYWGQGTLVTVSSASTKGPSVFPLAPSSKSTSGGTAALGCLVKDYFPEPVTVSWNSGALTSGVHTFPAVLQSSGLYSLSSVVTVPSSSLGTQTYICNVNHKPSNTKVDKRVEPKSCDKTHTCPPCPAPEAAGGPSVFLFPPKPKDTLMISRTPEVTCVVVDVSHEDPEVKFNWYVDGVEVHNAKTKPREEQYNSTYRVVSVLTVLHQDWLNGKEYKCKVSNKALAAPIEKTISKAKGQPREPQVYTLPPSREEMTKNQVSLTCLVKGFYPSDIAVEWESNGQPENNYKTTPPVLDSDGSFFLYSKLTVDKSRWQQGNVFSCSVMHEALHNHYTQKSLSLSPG
light 1: B4 light 1
light 2: B3 light 2
notes: κλ-body, huIgG1-LALAPA; also called AI5 (AI_1A9) kappa / O35 (Ob8_A10) lambda
B7: AI10O35/N (bispecific antibody, human IgG1, kappa, lambda, L234A L235A)
heavy: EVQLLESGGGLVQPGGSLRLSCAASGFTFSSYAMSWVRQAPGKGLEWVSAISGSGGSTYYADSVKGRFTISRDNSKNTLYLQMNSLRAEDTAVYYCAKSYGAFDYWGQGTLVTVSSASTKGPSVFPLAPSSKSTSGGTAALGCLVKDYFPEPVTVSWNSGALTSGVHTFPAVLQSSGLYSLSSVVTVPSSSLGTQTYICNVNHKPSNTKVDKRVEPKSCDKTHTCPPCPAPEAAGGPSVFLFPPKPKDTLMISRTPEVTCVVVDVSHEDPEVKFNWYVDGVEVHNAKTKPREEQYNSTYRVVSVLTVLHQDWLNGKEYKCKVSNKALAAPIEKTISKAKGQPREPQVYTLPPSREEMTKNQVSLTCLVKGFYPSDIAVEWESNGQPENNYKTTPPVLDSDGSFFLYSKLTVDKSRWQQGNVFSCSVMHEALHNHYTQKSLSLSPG
light 1: B4 light 1 with T31E, E33A, S98G, T99S, R100K, F101I, A102G
light 2: B3 light 2
notes: κλ-body, huIgG1-LALAPA; also called AI10 (AI_1B6) kappa / O35 (Ob8_A10) lambda
B8: AI10O41/N (bispecific antibody, human IgG1, kappa, lambda, L234A L235A)
heavy: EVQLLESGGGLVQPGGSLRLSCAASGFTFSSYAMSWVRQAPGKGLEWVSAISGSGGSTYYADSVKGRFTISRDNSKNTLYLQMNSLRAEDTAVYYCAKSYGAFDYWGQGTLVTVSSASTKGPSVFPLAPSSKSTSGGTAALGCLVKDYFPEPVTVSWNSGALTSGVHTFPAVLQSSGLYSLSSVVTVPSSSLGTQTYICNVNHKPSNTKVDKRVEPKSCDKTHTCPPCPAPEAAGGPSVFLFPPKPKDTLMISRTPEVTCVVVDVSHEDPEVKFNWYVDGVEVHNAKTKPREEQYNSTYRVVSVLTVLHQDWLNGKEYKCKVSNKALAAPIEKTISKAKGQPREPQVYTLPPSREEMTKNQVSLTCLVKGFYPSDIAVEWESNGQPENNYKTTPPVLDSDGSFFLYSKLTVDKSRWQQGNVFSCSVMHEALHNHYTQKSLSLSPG
light 1: B4 light 1 with T31E, E33A, S98G, T99S, R100K, F101I, A102G
light 2: B2 light 2
notes: κλ-body, huIgG1-LALAPA; also called AI10 (AI_1B6) kappa / O41 (Ob9_1A11) lambda
B9: AI10O30/N (bispecific antibody, human IgG1, kappa, lambda, L234A L235A)
heavy: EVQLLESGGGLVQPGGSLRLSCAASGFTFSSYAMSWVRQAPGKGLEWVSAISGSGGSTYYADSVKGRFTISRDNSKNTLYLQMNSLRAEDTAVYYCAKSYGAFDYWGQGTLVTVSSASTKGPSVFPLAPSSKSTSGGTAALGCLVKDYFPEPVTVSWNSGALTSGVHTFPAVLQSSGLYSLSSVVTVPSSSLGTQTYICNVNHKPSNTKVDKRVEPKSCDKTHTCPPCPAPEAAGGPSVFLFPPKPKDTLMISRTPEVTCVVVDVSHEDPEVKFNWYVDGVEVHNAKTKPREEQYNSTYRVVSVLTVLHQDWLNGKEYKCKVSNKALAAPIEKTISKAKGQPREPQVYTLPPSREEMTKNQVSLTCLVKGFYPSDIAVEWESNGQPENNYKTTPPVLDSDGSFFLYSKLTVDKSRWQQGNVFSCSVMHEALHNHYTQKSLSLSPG
light 1: B4 light 1 with T31E, E33A, S98G, T99S, R100K, F101I, A102G
light 2: not shown
notes: κλ-body, huIgG1-LALAPA; also called AI10 (AI_1B6) kappa / O30 (O1b6_1D1) lambda
B10: AI3AC84/N (bispecific antibody, human IgG1, kappa, lambda, L234A L235A)
heavy: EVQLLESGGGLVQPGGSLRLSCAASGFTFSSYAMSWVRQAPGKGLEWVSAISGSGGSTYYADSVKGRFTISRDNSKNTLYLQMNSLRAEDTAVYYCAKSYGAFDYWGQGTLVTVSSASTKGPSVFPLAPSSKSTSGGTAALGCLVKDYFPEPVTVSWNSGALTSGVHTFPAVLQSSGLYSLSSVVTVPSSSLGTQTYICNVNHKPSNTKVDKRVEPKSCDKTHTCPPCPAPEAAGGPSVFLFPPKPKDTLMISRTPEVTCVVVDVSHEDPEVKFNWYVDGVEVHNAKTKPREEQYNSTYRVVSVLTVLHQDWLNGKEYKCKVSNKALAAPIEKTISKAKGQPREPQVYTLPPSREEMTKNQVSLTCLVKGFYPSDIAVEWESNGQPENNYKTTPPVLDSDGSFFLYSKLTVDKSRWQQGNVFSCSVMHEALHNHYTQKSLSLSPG
light 1: not shown
light 2: QSVLTQPPSVSAAPGQKVTISCSGSSSNIGIGLVSWYQQLPGTAPKLLIYNVNTRPSGIPDRFSGSKSGTSATLGITGLQTGDEADYYCGTWDFSYRVDFGGGTKLTVLGQPKAAPSVTLFPPSSEELQANKATLVCLISDFYPGAVTVAWKADSSPVKAGVETTTPSKQSNNKYAASSYLSLTPEQWKSHRSYSCQVTHEGSTVEKTVAPTECS
notes: κλ-body, IgG1 LALAPA; also called AI3 (AI_1H5) kappa / AC84 (AC1g6_1F1) lambda
B11: AI5AC84/N (bispecific antibody, human IgG1, kappa, lambda, L234A L235A)
heavy: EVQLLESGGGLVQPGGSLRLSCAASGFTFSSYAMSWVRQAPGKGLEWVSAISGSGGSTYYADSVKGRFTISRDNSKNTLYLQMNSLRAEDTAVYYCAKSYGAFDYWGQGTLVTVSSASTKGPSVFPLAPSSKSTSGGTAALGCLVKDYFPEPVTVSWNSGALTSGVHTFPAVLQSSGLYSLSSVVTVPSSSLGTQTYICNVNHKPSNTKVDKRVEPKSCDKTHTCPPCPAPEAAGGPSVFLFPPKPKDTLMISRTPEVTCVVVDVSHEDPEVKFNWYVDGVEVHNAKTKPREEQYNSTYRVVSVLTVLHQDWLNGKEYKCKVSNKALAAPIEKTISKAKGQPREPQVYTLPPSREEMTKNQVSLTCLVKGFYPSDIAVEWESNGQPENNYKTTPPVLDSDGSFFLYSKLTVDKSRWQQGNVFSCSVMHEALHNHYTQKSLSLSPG
light 1: B4 light 1
light 2: B10 light 2
notes: κλ-body, IgG1 LALAPA; also called AI5 (AI_1A9) kappa / AC84 (AC1g6_1F1) lambda
B12: AI10AC84/N (bispecific antibody, human IgG1, kappa, lambda, L234A L235A)
heavy: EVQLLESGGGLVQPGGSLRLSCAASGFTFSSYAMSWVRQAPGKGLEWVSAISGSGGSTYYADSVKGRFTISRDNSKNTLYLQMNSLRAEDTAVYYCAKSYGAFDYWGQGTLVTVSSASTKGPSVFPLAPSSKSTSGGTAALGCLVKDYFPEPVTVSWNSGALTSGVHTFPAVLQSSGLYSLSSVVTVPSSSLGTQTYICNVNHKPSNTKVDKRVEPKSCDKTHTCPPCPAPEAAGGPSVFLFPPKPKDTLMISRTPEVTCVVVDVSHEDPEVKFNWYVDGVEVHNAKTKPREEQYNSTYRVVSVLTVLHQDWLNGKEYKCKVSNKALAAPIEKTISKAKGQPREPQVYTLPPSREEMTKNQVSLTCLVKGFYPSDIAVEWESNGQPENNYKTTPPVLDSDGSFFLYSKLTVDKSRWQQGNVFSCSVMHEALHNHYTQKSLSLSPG
light 1: B4 light 1 with T31E, E33A, S98G, T99S, R100K, F101I, A102G
light 2: B10 light 2
notes: κλ-body, IgG1 LALAPA; also called AI10 (AI_1B6) kappa / AC84 (AC1g6_1F1) lambda

Biological target: T1, human CD28 (human, UniProt P10747 19-220)
T1 construct: whole, on cells; also called huCD28
Assay: flow cytometry on Jurkat cells, reference bsAb

binding result | Binder
binds | B1

Biological target: T1, human CD28
Assay: flow cytometry on Jurkat cells

binding result | Binder
binds | B2
binds | B3
binds | B4
binds | B5
binds | B6
binds | B7
binds | B8
binds | B9

Biological target: T1, human CD28
Assay: worded affinity grade in the in vivo example; no assay named there

binding result | Binder
binds | B10
binds | B11
binds | B12
